How the values were obtained:
Format in all cases: biochemical
Conditions in all cases: 0.4 mM electrophilic substrate, 4 mM glutathione, 0.1 M MOPS pH 7.0, corrected for uncatalyzed reaction
[1] = GST conjugation activity with ethacrynic acid (HPLC)
Text: (§1) The GST enzymes, expressed and purified as described in Example 5 were screened for their ability to metabolize a variety of substrates. Substrates tested included the three herbicide electrophilic substrates chlorimuron ethyl, alachlor, and Atrazine, and four model electrophilic substrates, 1-chloro-2, 4-dinitro-benzene (CDNB), ethacrynic acid, t-stilbene oxide, and 1,2-epoxy-3-(p-nitro-phenoxy) propane. The enzymes were purified as described in Example 5 and used in the following assay.
(§2) For each enzyme, the conjugation reaction with each electrophilic substrate was performed by incubating 0.3 to 30 μg enzyme in 0.1 M MOPS (pH 7.0) containing 0.4 mM of the electrophilic substrate. The reaction was inititated by the addition of glutathione to a final concentration of 4 mM. After 5 to 30 min, the reaction was terminated by the addition of 45 μL acetonitrile, microfuged for 10 min to remove precipitated protein, and then the supematent was removed and added to 65 μL of water. This sample was chromatographed on a Zorbax C8 reverse phase HPLC column (3 μm particle size, 6.2 mm×8 cm) using a combination of linear gradients (flow=1.5 mL/min) of 1% H3 PO4 in water (solvent A) and 1% H3 PO4 in acetonitile. The gradient started with 5% solvent B, progressing from 5% to 75% solvent B between 1 and 10 min, and from 75% to 95% solvent B between 10 and 12 min. Control reactions without enzyme were performed to correct for uncatalyzed reaction. Quantitation of metabolites were based on an assumption that the extinction coefficient of the conjugate was identical to that of the electrophilic substrate.
(§3) Activities are related to the activity of a known and previously isolated and purified GST enzyme, GH2/4 (also called GST 26) (Czarnecka et al., Plant Molecular Biology 3:45-58 (1984); Ulmasoz et al., Plant Physiol 108:919-927 (1995)).

[2] = GST conjugation activity with t-stilbene oxide (HPLC)
Text: as §1, §2, §3

[3] = GST conjugation activity with CDNB (HPLC)
Text: as §1, §2, §3

[4] = GST conjugation activity with chlorimuron ethyl (HPLC)
Text: as §1, §2, §3

[5] = GST conjugation activity with Atrazine (HPLC)
Text: as §1, §2, §3

[6] = GST conjugation activity with alachlor (HPLC)
Text: as §1, §2, §3

[7] = GST conjugation activity with 1,2-epoxy-3-(p-nitrophenoxy)propane (HPLC)
Text: as §1, §2, §3

Molecule	Activity of soybean GST enzyme, Ethacrynic Acid [1] [nmol/min/mg]	Activity of soybean GST enzyme, T-Stilbene Oxide [2] [nmol/min/mg]	Activity of soybean GST enzyme, CDNB [3] [nmol/min/mg]	Activity of soybean GST enzyme, Chlorimuron Ethyl [4] [nmol/min/mg]	Activity of soybean GST enzyme, Atrazine [5] [nmol/min/mg]	Activity of soybean GST enzyme, Alachlor [6] [nmol/min/mg]	Activity of soybean GST enzyme, 1,2-epoxy-3-(p-nitrophenoxy)propane [7] [nmol/min/mg]
ssm.pk0067.g5: soybean type III GST encoded by cDNA insert in clone ssm.pk0067.g5 (protein) MASYHEEEVRLLGKWASPFSNRVDLALKLKGVPYKYSEEDLANKSADLLKYNPVHKKVPVLVHNGNPLPESLIIVEYIDETWKNNPLLPQDPYERALARFWSKTLDDKILPAIWNACWSDENGREKAVEEALEALKILQETLKDKKFFGGESIGLVDIAANFIGYWVAILQEIAGLELLTIEKFPKLYNWSQDFINHPVIKEGLPPRDELFAFFKASAKK	13	0.49	1394	0.1	0.03	4	19
ses8w.pk0028.c6: soybean type III GST encoded by cDNA insert in clone ses8w.pk0028.c6 (protein) MAANQEDVKLLGATGSPFVCRVQIALKLKGVQYKFLEENLRNKSELLLKSNPVHKKVPVFIHNEKPIAESLVIVEYIDETWKNNPILPSDPYQRALARFWSKFIDDKVVGAAWKYIYTVDEKEREKNVEESYEALQFLENELKDKKFFGGEEIGLVDIAAVFIAFWIPIIQEVLGLKLFTSEKFPKLYKWSQEFINHPVVKQVLPPRDQLFAFYKACHESLSASK	17	4.04	515	0.2	1.40	10	12
ssl.pk0020.b10: soybean type III GST encoded by cDNA insert in clone ss1.pk0020.b10 (protein) MAEQDKVILHGMWASPYAKRVELALNFKGIPYEYVEEDLRNKSDLLLKYNPVHKKVPVLVHNGKAIAESMVILEYIDETWKDGPKLLPSDSYKRAQARFWCHFIQDQLMESTFLVVKTDGEAQQKAIDHVYEKLKVLEDGMKTYLGEGNAIISGVENNFGILDIVFCALYGAYKAHEEVIGLKFIVPEKFPVLFSWLMAIAEVEAVKIATPPHEKTVGILQLFRLSALKSSSATE	14	0.02	470	0.1	0.03	7	47
se6.pk0037.h4: soybean type III GST encoded by cDNA insert in clone se6.pk0037.h4, expressed in E. coli (protein) MAATQEDVTLLGVVGSPFVCRVQIALKLKGIECKFLEENLANKSDLLLKSNPVYKKVPVFIHNEKPIAESLVIVEYIDETWKNNPILPSDPYQRSFARFWSKFIDDKIVGASWKSVFTVDEKEREKNVEESLEALQFLENELQDKRFFGGDEFGFVDIAGVFIAFSIPIFQEVAGLQLFTSEKFPKLFKWSQELINHPVVKDVLPPREPLFAFFKSLYESLSASK	13	0.06	2364	0.1	0.19	1	1
GST-A: soybean type III GST encoded by cDNA insert in clone GSTa (protein) MSDEVVLLDFWPSPFGMRVRIALAEKGIKYEYKEEDLRNKSPLLLQMNPVHKKIPVLIHNGKPICESLIAVQYIEEVWNDRNPLLPSDPYQRAQTRFWADYVDKKIYDLGRKIWTSKGEEKEAAKKEFIEALKLLEEQLGDKTYFGGDNLGFVDIALVPFYTWFKAYETFGTLNIEECPKFIAWAKRCLQKESVAKSLPDQQKVYEFIMDLRKKLGIE	109	0.06	1924	0.5	0.03	71	22
ssl.pk0002.f7: soybean type III GST encoded by cDNA insert in clone ss1.pk0002.f7 (protein) MADGVVLLDTWASMFGMRVRIALAEKGVEYEYKEENLRNKSPLLLQMNPIHKKIPVLIHNGKPICESAIIVQYIDEVWNDKAPILPSDPYERAQARFWVDYIDKKVYDTWRKMWLSKGEEHEAGKKEFISIFKQLEETLSDKAYYGSDTFGFLDIGLIPFYSWFYTFETYGNFKMEEECPKLVAWAKRCMQREAVSKSLS	68	0.16	2576	0.9	0.00	30	10
se3.03b09: soybean type III GST encoded by cDNA insert in clone se3.03b09 (protein) MSKSEDLKLLGGWFSPFALRVQIALNLKGLEYEVVEETLNPKSDLLLKSNPVHKKIPVFFHGDKVICESAIIVEYIDEAWTNVPSILPQNAYDRANARFWFAYIDEKWFTSLRSVLVAEDDEAKKPHFEQAEEGLERLEEVFNKYSEGKAYFGGDSIGFIDIGFGSFLSWMRVIEEMSGRKLLDEKKHPGLTQWAETFAADPAVKGILPETDKLVEFAKILQLKWTAAAAAAAK	1	0.07	14364	4.4	–	168	20
ssl.pk0005.e6: soybean type III GST encoded by cDNA insert in clone ss1.pk0005.e6 (protein) MTDEVVLLDFWPSPFGMRVRIALAEKGIEYEYKEEDLRNKSPLLLQMNPVHKKIPVLIHNGKPISESLIAVQYIEEVWNDRNPLLPSDPYQRAQARFWADYVDIKIHDLGKKIWTSKGEEKEAAKKEFIEALKLLEEQLGDKTYFGGDNIGFVDIALVPFYTWFKVYETFGSLNIENECPRFVAWAKRCLQKESVAKSLPDQHKVYEFVVEIRKKLVIE	11	0.06	2030	1.4	0.00	166	4
se6.pk0048.d7: soybean type III GST encoded by cDNA insert in clone se6.pk0048.d7 (protein) MADEVVLLDFWPSPFGMRVRIALAEKGIKYESKEEDLQNKSPLLLKMNPVHKKIPVLIHNGKPICESLVAVQYIEEVWNDRNPLLPSDPYQRAQARFWADFVDNKIFDLGRKIWTSKGEEKEAAKKEFIEALKLLEEQLGDKTYFGGDDLGFVDIALIPFDTWFKTFGSLNIESECPKFVAWAKRCLQKDSVAKSLPDQHKVYEFIMDIRKKFDIE	4	0.07	1379	0.5	0.76	8	9

Reference: patent US6168954A, “Soybean glutathione-S-transferase enzymes” (E. I. du Pont de Nemours & Company, priority 1999, dated 2001)
